Assays:
Assay in all cases: holdup assay
Parameters in all cases: key: below the threshold = too weak to quantify, mostly under pKd 3.1 to 4
LNX2_3, Q8N448 = biological target: T1, LNX2_3, Q8N448
T1 sequence (Q8N448 463-564, limits assumed, looked up): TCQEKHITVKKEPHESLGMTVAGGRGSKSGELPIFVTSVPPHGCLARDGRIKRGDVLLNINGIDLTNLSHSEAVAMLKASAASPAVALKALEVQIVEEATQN

CARD11, Q9BXL7 = biological target: T2, CARD11, Q9BXL7
T2 sequence (Q9BXL7 662-765, limits assumed, looked up): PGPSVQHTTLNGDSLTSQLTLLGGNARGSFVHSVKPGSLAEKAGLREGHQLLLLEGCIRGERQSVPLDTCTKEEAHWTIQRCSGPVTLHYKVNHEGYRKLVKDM

CASK, O14936 = biological target: CASK, O14936
CASK, O14936, sequence (O14936 487-570): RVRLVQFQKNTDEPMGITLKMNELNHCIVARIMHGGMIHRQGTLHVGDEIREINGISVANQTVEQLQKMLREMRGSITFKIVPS

DFNB31_1, Q9P202 = biological target: T3, DFNB31_1, Q9P202
T3 sequence (Q9P202 135-233, limits assumed, looked up): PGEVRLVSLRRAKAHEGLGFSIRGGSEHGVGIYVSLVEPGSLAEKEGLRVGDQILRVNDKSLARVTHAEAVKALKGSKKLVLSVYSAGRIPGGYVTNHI

MAGI2_5, Q86UL8 = biological target: MAGI2_5, Q86UL8
MAGI2_5, Q86UL8, sequence (Q86UL8 915-1017): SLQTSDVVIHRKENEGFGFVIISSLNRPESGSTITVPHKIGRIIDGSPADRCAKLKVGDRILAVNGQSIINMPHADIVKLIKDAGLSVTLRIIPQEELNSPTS

GRIP1_7, Q9Y3R0 = biological target: T4, GRIP1_7, Q9Y3R0
T4 sequence (Q9Y3R0 999-1096, limits assumed, looked up): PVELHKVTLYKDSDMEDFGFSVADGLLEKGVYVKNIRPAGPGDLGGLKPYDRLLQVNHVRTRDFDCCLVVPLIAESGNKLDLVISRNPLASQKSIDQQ

PTPN3, P26045 = biological target: PTPN3, P26045
PTPN3, P26045, sequence (P26045 505-587): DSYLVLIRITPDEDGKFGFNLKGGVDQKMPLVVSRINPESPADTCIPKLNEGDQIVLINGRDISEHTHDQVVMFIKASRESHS

TIAM2, Q8IVF5 = biological target: T5, TIAM2, Q8IVF5
T5 sequence (Q8IVF5 885-986, limits assumed, looked up): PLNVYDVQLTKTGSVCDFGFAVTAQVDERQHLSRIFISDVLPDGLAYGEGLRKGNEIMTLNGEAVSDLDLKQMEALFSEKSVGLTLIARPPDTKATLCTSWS

DLG1_2, Q12959 = biological target: DLG1_2, Q12959
DVL3, Q92997 = biological target: T6, DVL3, Q92997
T6 sequence (Q92997 244-331, limits assumed, looked up): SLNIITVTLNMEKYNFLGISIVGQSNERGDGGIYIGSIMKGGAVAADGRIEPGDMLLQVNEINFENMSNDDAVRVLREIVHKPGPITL

MAGI2_3, Q86UL8 = biological target: MAGI2_3, Q86UL8
MAGI2_3, Q86UL8, sequence (Q86UL8 600-682): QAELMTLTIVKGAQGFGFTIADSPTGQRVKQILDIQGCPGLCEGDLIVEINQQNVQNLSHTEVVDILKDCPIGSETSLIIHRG

NHERF2_2, Q15599 = biological target: NHERF2_2, Q15599
NHERF2_2, Q15599, sequence (Q15599 142-238): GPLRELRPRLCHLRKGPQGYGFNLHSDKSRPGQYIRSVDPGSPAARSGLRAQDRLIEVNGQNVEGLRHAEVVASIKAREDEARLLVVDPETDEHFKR

GRIP1_3, Q9Y3R0 = biological target: T7, GRIP1_3, Q9Y3R0
T7 sequence (Q9Y3R0 247-346, limits assumed, looked up): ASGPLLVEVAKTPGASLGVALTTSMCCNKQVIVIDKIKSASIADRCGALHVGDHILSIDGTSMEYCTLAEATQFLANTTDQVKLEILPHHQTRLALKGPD

MAGI1_2, Q96QZ7 = biological target: MAGI1_2, Q96QZ7
MAGI1_2, Q96QZ7, sequence (Q96QZ7 456-580): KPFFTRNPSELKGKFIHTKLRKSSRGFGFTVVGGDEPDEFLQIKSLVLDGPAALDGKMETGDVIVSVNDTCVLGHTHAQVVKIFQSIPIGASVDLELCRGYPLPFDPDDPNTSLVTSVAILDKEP

DLG3_3, Q92796 = biological target: T8, DLG3_3, Q92796
T8 sequence (Q92796 374-475, limits assumed, looked up): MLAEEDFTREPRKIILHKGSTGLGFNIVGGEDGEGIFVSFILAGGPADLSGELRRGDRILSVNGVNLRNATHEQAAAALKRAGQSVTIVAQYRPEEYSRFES

GRID2IP_2, A4D2P6 = biological target: GRID2IP_2, A4D2P6
GRID2IP_2, A4D2P6, sequence (A4D2P6 272-370): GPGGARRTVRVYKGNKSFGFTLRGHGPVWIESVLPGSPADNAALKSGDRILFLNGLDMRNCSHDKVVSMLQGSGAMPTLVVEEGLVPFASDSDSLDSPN

DLG1_1, Q12959 = biological target: DLG1_1, Q12959
FRMPD3, Q5JV73 = biological target: FRMPD3, Q5JV73
FRMPD3, Q5JV73, sequence (Q5JV73 12-100): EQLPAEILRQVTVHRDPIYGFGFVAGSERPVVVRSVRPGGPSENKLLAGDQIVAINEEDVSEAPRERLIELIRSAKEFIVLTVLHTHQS

TJP2_1, Q9UDY2 = biological target: TJP2_1, Q9UDY2
TJP2_1, Q9UDY2, sequence (Q9UDY2 24-128): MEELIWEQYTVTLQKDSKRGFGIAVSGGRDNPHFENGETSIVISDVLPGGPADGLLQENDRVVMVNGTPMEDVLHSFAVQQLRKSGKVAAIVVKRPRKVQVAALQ

Inadl_6, Q8NI35 = biological target: Inadl_6, Q8NI35
Inadl_6, Q8NI35, sequence (Q8NI35 1058-1167): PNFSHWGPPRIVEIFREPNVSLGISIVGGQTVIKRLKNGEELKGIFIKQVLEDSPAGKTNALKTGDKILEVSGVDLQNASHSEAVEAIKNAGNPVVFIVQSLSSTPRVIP

DLG4_3, P78352 = biological target: DLG4_3, P78352
DLG4_3, P78352, sequence (P78352 306-403): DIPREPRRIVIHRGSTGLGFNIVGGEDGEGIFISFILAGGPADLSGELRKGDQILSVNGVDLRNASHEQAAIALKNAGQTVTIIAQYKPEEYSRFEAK

PCLO, Q9Y6V0 = biological target: T9, PCLO, Q9Y6V0
T9 sequence (Q9Y6V0 4491-4600, limits assumed, looked up): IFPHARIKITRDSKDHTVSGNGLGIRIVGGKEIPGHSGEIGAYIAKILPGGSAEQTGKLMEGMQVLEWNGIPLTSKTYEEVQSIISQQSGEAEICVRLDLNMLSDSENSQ

RHPN1, Q8TCX5 = biological target: T10, RHPN1, Q8TCX5
T10 sequence (Q8TCX5 508-602, limits assumed, looked up): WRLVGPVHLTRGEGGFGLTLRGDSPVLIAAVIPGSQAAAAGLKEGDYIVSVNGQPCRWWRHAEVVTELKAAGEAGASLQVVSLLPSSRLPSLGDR

SCRIB_3, Q14160 = biological target: SCRIB_3, Q14160
SCRIB_3, Q14160, sequence (Q14160 999-1103): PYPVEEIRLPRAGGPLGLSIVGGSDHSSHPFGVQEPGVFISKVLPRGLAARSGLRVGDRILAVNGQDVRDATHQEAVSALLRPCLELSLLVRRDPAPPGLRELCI

MAST1, Q9Y2H9 = biological target: MAST1, Q9Y2H9
MAST1, Q9Y2H9, sequence (Q9Y2H9 962-1065): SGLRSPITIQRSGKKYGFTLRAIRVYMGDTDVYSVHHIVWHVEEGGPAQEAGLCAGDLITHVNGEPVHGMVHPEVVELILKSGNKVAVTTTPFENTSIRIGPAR

Inadl_10, Q8NI35 = biological target: Inadl_10, Q8NI35
Inadl_10, Q8NI35, sequence (Q8NI35 1673-1763): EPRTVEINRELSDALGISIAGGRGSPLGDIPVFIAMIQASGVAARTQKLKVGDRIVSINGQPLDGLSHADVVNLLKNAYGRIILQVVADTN

DFNB31_3, Q9P202 = biological target: T11, DFNB31_3, Q9P202
T11 sequence (Q9P202 811-907, limits assumed, looked up): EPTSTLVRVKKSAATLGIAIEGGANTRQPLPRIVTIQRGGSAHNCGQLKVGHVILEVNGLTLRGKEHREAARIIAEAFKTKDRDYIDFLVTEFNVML

[1] = plain residues with an end cap or a label only (N-terminal biotin on a linker: gsgsgs; C-terminal amide)
[2] = plain residues with an end cap or a label only (N-terminal biotin on a linker: none)
[3] = plain residues with an end cap or a label only (N-terminal biotin on a linker: ahx)

Measured: pKd

VSVDDVRSTSQGLSSY [DFNB31_int, Q9P202]
4.02: DFNB31_3, Q9P202; [1]
3.68: PTPN3, P26045; [1]
3.85: TIAM2, Q8IVF5; [1]
below the threshold: LNX2_3, Q8N448; [1] | CARD11, Q9BXL7; [1] | CASK, O14936; [1] | DFNB31_1, Q9P202; [1] | MAGI2_5, Q86UL8; [1] | GRIP1_7, Q9Y3R0; [1] | DLG1_2, Q12959; [1] | DVL3, Q92997; [1] | MAGI2_3, Q86UL8; [1] | NHERF2_2, Q15599; [1] | GRIP1_3, Q9Y3R0; [1] | MAGI1_2, Q96QZ7; [1] | DLG3_3, Q92796; [1] | GRID2IP_2, A4D2P6; [1] | DLG1_1, Q12959; [1] | FRMPD3, Q5JV73; [1] | TJP2_1, Q9UDY2; [1] | Inadl_6, Q8NI35; [1] | DLG4_3, P78352; [1] | PCLO, Q9Y6V0; [1] | RHPN1, Q8TCX5; [1] | SCRIB_3, Q14160; [1] | MAST1, Q9Y2H9; [1] | Inadl_10, Q8NI35; [1]

NLNSSRVPDLLV [SARS-CoV2-E, P0DTC4]
below the threshold: LNX2_3, Q8N448; [2] | CARD11, Q9BXL7; [2] | CASK, O14936; [2] | DFNB31_1, Q9P202; [2] | MAGI2_5, Q86UL8; [2] | GRIP1_7, Q9Y3R0; [2] | PTPN3, P26045; [2] | TIAM2, Q8IVF5; [2] | DLG1_2, Q12959; [2] | DVL3, Q92997; [2] | MAGI2_3, Q86UL8; [2] | NHERF2_2, Q15599; [2] | GRIP1_3, Q9Y3R0; [2] | MAGI1_2, Q96QZ7; [2] | DLG3_3, Q92796; [2] | GRID2IP_2, A4D2P6; [2] | DLG1_1, Q12959; [2] | FRMPD3, Q5JV73; [2] | TJP2_1, Q9UDY2; [2] | Inadl_6, Q8NI35; [2] | DLG4_3, P78352; [2] | PCLO, Q9Y6V0; [2] | RHPN1, Q8TCX5; [2] | SCRIB_3, Q14160; [2] | MAST1, Q9Y2H9; [2] | Inadl_10, Q8NI35; [2] | DFNB31_3, Q9P202; [2]

TVICWPGSLV [LNX2, Q8N448]
3.95: DLG3_3, Q92796; [3] | GRID2IP_2, A4D2P6; [3]
4.27: DLG1_2, Q12959; [3]
4.23: PTPN3, P26045; [3]
3.85: MAGI1_2, Q96QZ7; [3] | RHPN1, Q8TCX5; [3]
3.55: Inadl_6, Q8NI35; [3]
below the threshold: CARD11, Q9BXL7; [3] | CASK, O14936; [3] | DFNB31_1, Q9P202; [3] | GRIP1_7, Q9Y3R0; [3] | TIAM2, Q8IVF5; [3] | NHERF2_2, Q15599; [3] | GRIP1_3, Q9Y3R0; [3] | FRMPD3, Q5JV73; [3] | PCLO, Q9Y6V0; [3] | DFNB31_3, Q9P202; [3]
3.88: MAST1, Q9Y2H9; [3]
3.66: MAGI2_3, Q86UL8; [3]
3.65: LNX2_3, Q8N448; [3]
4.35: MAGI2_5, Q86UL8; [3]
3.58: DLG4_3, P78352; [3]
4.11: SCRIB_3, Q14160; [3]
4.03: Inadl_10, Q8NI35; [3]
3.9: TJP2_1, Q9UDY2; [3]
4.21: DLG1_1, Q12959; [3]
3.99: DVL3, Q92997; [3]

Reference: paper PMC9482650, “Quantitative fragmentomics allow affinity mapping of interactomes” (Nature Communications, 2022)
